In article PMC4063679 (Structure (London, England : 1993), 2011) one finds Kd data, which are given here for two molecules.

Test [1] concerns the target T1, His-tagged I-BAR domain of IRSp53, wild type (human, UniProt Q9UQB8-4 1-250).
T1 sequence: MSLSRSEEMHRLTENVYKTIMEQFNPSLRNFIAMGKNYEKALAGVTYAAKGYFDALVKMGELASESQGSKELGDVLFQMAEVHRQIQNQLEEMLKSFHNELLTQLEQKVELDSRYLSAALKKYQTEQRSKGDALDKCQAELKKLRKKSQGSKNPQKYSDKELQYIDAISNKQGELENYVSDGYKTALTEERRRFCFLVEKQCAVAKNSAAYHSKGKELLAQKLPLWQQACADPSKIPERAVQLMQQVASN
The test can be described thus: ITC.

The target of test [2] is T1, His-tagged I-BAR domain of IRSp53, wild …. The test can be described thus: ITC. The source holds these as a separate data set.

Like-named read-outs stand apart in the source and are kept apart here. Where no end group is shown, it is not given here.

For the molecule SEVVNPYAEVGG-NH2 [EPEC Tir-derived 12-mer peptide SEVVNPYAEVGG (residues 448-459)], the Kd in test [1] amounted to 37 ± 14 µM.

In test [2], GTVQNPYADVKT-NH2 [EHEC Tir-derived dodecapeptide GTVQNPYADVKT (residues 452-463)] displayed a Kd of 59 ± 10 µM.

One may read the Kd as the equilibrium constant for the complex coming apart.
